Measurements: publication PMC5349596

Target: Asp74 (UniProt position 74, WARYIDWVITT)
Assay: UV-vis
Settings: room temperature (approx. 25 °C); not stated (no added salt; low-millimolar buffer mixture; pH adjusted with concentrated H2SO4); 0.89 mM citric acid, 0.89 mM MES, 1.1 mM TES, 0.78 mM TAPS, 1.1 mM CHES and 0.33 mM CAPS; Folded, retinal-bound (nearly 100% all-trans), detergent-solubilised; dark or light adaptation during the titration not stated

“Rubrobacter xylanophilus rhodopsin (RxR) (Rubrobacter xylanophilus DSM 9941)” was tested, and the pKa was 1.3 ± 0.17.
